Reference: article PMC3961393, “Progranulin-Derived Atsttrin Directly Binds to TNFRSF25 (DR3) and Inhibits TNF-Like Ligand 1A (TL1A) Activity” (PLoS ONE, 2014)

Assays:
[1] = biological target: T1, Recombinant protein hTL1A (human, UniProt O95150 72-251); assay: ELISA; solid phase inhibition assay: 100 ng of TNFa or TL1A coated overnight, 100 ng of TNFR2 or DR3 added together with various dose of Atsttrin, bound receptor detected by anti-TNFR2 or anti-DR3 antibody and HRP secondary antibody; details: both partners purified
T1 construct: human TL1A, recombinant; also called TNF-Like Ligand 1A; source: bought: R&D system (Cat# 1319-TL-010)
T1 sequence (looked up): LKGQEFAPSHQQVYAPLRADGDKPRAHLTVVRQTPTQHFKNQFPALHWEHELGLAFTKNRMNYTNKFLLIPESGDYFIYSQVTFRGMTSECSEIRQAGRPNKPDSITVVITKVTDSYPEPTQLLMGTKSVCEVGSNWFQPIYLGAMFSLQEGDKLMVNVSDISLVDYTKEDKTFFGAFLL

Recombinant hPGRN = biological target: T2, Recombinant hPGRN (human, UniProt P28799 18-593); assay: ELISA; solid phase binding assay: various dose of Atsttrin or progranulin coated on the plate overnight, biotinylated TNFR2, DR3 or BSA added, detected with avidin-HRP, OD 450 nm; details: both partners purified
T2 construct: human progranulin, recombinant; also called Progranulin; source: bought: Adipogen (Cat. No. AG-40A-0188)
T2 sequence (looked up): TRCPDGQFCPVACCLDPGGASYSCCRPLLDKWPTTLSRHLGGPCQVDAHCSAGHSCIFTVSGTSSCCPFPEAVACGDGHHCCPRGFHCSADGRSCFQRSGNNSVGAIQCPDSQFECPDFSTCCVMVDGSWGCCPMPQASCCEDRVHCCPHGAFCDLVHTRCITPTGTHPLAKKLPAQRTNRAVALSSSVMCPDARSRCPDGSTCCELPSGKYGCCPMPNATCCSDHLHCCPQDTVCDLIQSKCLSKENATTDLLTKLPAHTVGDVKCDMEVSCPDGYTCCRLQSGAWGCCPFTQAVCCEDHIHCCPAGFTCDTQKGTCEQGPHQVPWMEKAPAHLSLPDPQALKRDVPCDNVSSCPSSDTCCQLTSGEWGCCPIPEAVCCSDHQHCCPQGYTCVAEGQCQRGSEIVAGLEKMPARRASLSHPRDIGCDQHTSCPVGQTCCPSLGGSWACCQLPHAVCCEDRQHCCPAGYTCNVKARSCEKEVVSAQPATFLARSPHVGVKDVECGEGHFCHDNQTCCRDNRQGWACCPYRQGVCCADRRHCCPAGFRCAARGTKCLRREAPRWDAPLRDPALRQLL

B1: recombinant extracellular portion of hDR3 (domain or fragment, human, UniProt Q93038 25-199, looked up)
chain: QGGTRSPRCDCAGDFHKKIGLFCCRGCPAGHYLKAPCTEPCGNSTCLVCPQDTFLAWENHHNSECARCQACDEQASQVALENCSAVADTRCGCKPGWFVECQVSQCVSSSPFYCQPCLDCGALHRHTRLLCSRRDTDCGTCLPGFYEHGDGCVSCPTSTLGSCPERCAAVCGWRQ
modifications: biotinylated (site not stated) in the direct solid phase binding assay; biotin is not mentioned for the inhibition assay
notes: human DR3 (TNFRSF25), recombinant extracellular portion; As I recall, this catalogue item is an Fc chimera; also called DR3 extracellular portion; TNFRSF25; source: bought: R&D system (Cat# 943-D3-050)
- binding result [1]: binds
- binding result (Recombinant hPGRN): binds
